{"source": "paper PMC5100602", "molecular_target": "Gk-S15 (ribosomal protein S15) (Geobacillus kaustophilus) (UniProt Q5L0I3)", "experiment": "filter binding", "conditions": "SELEX Binding Buffer A: 50 mM Tris/acetate pH 7.5, 20 mM Mg-acetate, 270 mM KCl, 5 mM DTT, 0.02% BSA, 25 C, 30 min; filter binding (nitrocellulose/nylon) as …", "note": "pKd: −log10 of the molar value."}
{"substance": "Gk-mRNA", "values": [{"measurement": "pKd", "value": 9.15}]}
